Assay results published in US6589738B1, “Genes essential for microbial proliferation and antisense thereto” (priority 1999, dated 2003).
In brackets after ≈: the same amount, converted by molar mass.

B1: EcXA059: antisense clone insert encoding a portion of the ypjA gene of Escherichia coli (nucleic acid, listed as Escherichia coli)
DNA: NACCANGANTGGGACCCAAATGAAAATTGAACTGAAGATTACAATCAATTTAACANCAAGTTACACAACCAATTCAGACTCCGCCAGCCCACCAATCATGATTGGACGGTGTAAGGACAACACCAACAAAAACAGGAAGTTAGAAGTCTNAGCAAAACACCGACCAGACGGTGAGGAGACATAAAAGGATACGCAAAGGAGCCGCGGCTCCTGGTAACATGAAAGCCCACAGATGTGGGCTTTTTCGTTGATGGTCAGAACGACCAGTTCACACCAGCTACCGCGTTCCACGGGGATTCCACACCGGCACTATGGCTATACCCCACCCCAAGATGCCCGCTTAACGTACTGCTGAATGAGGCTTTAATACCTGCCTGGTATATTCCACGTCTGCCCGACAAATAATTGACGAAATTACCGNCACTATTCACTTTCACCCGGTTATCATCGACAAATTCTTTGCGCACAAGCCGNCTTCAGCCACGGNTCAACTTCCATACCGNTCCCCAGACGCATGTTGTAACTCAACGTTGCGCCCAGTTCACGATATATACTGCGGGTATCGACTGATTTCGATTTCATGCCATTGGATAAATGATATTCGGGGTTATCAGCGGTGAAACCCGTTNACGATGCATACNGGGTCAGGGTTCAATTACCATCGGTAAATCGCATTCCCGGTTTCAATGTGACCGCCAANCCCGTTGCTGTNGGTAACTGGCATTGGCGGGTTCANCGGTGGTAATTTTAACCTGGTACGNTACTTTTAAAACGGGTTAAGCTTTACCGAANACCGTNCANNATTGGAAACCCNCTTTTAATGGTTNCCCAACTNGGNN
modifications: misc_feature (1)...(839): n = A,T,C or G
notes: antisense clone insert encoding a portion of the ypjA gene of Escherichia coli
B2: EcXA082: antisense clone insert, E. coli genes hybC; hybB (nucleic acid, listed as Escherichia coli)
DNA: TGCTTTGCTCGCCTCATGACGATTATGATCGTTTTGTTTTAAAGGAGGAAGTATCGGCAGTAGACGAATGAGTACGATGTAAGCGCAAATCTCAATAGCCACAAAACCAATAGAAATCAACAGTTCTTCCCAGGTCGGGAAGTA
B3: EcXA083: antisense clone insert, E. coli gene hrpB (nucleic acid, listed as Escherichia coli)
DNA: CGGCTTAGCGCGTCGTTGGCATCGAGCATCGCTCCCATGCCGTTTGCCAGTTGATAGCGTCCATCTTGCC
B4: EcXA104: antisense clone insert, E. coli gene hsdS (nucleic acid, listed as Escherichia coli)
DNA: GACGCGGCGAACGATTTCGGCTTGTTCTTTTACTGGAGGTAATAAAACAACTTGGGATTTGATATCTTTTCCTGAAATACCTTTTTGACCAGAAGTTGTTTTCACGCAGTTCATCATTGCATTTCGTGCTGAGGGGGATGAAAAAAATATTTCGATATATTCTGGTAAAGCATCTTT
B5: EcXA072: antisense clone insert, E. coli gene recJ (nucleic acid, listed as Escherichia coli)
DNA: GATTTTTACCGGATTAATTTTAAACATGGTCTGATTTCTTTTATTGAGCTAGTCAAAATGCGGTGATAAGAGCGGGATTGTCCCAATCCACGCTCTTTTTTATAGAGAAGATGACGCTAAATTGGCCAGATATTGTCGATGATAATTTG
B6: EcXA062: antisense clone insert, E. coli gene rep (nucleic acid, listed as Escherichia coli)
DNA: CGCGTGGAGAGTCATCAGTTGCACCTGATCCAGCTCTTCTTCACTCTCACCACGCTCNATCATGTCGCGCAAAGTAAAGCGCGTCACCACCTGGGTGAGCGTCATCGGCTCATCCAGTTCACTGCCTTCCAGCATCTCCGTCATCCAGCTAAACAGTTGGTTGACGTTCTTCATGCGCATTTCGGCGGCTTTCGGGCTGGGCGATGTTTCGTACAGCCAGGATTCATAATCCATGCCATGGATCAGATCACGCACCGCGGCAATCGGCTCCCGCTCCGCCAGACGCTGGATTTCTGCCAACCAGTGAGTGAAGCGGGTCAATGCTTCA
modifications: misc_feature (1)...(328): n = A,T,C or G
notes: antisense clone insert, E. coli gene rep

Columns and labels:
[1] = test system: Bacterial cells containing IPTG-inducible antisense nucleic acid against rplL and rplJ (50S ribosomal subunit proteins); test: microbe, parasite or virus in culture; format: cell-based, E. coli; details: Escherichia coli, read-out: IC50 (+IPTG)
Method: Antibiotics of various chemical classes and modes of action were purchased from Sigma Chemicals (St. Louis, Mo.). Stock solutions were prepared by dissolving each antibiotic in an appropriate aqueous solution based on information provided by the manufacturer. The final working solution of each antibiotic contained no more than 0.2% (w/v) of any organic solvent. To determine their potency against a bacterial strain engineered for expression of an antisense against a proliferation-required gene encoding 50S ribosomal protein, each antibiotic was serially diluted two or three fold in growth medium supplemented with the appropriate antibiotic for maintenance of the anti-sense construct. […]
Cells for the assay were prepared as follows. […] The plate was then loaded into a plate reader, incubated at constant temperature, and cell growth was monitored in each well by the measurement of light scattering at 595 nm. Growth was monitored every 5 minutes until the cell culture attained a stationary growth phase. For each concentration of antibiotic, a percentage inhibition of growth was calculated at the time point corresponding to mid-exponential growth for the associated control wells (no antibiotic, plus or minus IPTG). For each antibiotic and condition (plus or minus IPTG), a plot of percent inhibition versus log of antibiotic concentration was generated and the IC50 determined.

Escherichia coli = test: Growth inhibition after IPTG induction of antisense RNA expression (Example 1; score of Example 12); format: cell-based; details: for effect of antisense expression on E. coli growth: 1 mM IPTG
Method: (§1) To study the effects of transcriptional induction in liquid medium, growth curves were carried out by back diluting cultures 1:200 into fresh media with or without 1 mM IPTG and measuring the OD450 every 30 minutes (min). To study the effects of transcriptional induction on solid medium, 10^2, 10^3, 10^4, 10^5, 10^6, 10^7 and 10^8 fold dilutions of overnight cultures were prepared. Aliquots of from 0.5 to 3 μl of these dilutions were spotted on selective agar plates with or without 1 mM IPTG. After overnight incubation, the plates were compared to assess the sensitivity of the clones to IPTG.
Of the numerous clones tested, some clones were identified as containing a sequence that inhibited E. coli growth after IPTG induction. Accordingly, the gene to which the inserted nucleic acid sequence corresponds, or a gene within the operon containing the inserted nucleic acid, may be required for proliferation in E. coli.
(§2) Molecule No. EcXA059, encoding a portion of the ypjA gene of Escherichia coli, was either transformed directly into Enterobacter cloacae, Salmonella typhimurium and/or Klebsiella pneumoniae or subcloned into an expression vector functional in these species and the subclones transformed into these organisms. Suitable expression vectors are well known in the art. These expression vectors were introduced into Enterobacter cloacae, Salmonella typhimurium and/or Klebsiella pneumoniae cells that were then assayed for growth inhibition according to the method of Example 1. After growth in liquid culture, cells were plated at various serial dilutions and a score determined by calculating the log difference in growth for INDUCED vs. UNINDUCED antisense RNA expression as determined by the maximum 10 fold dilution at which a colony was observed. If there was no effect of antisense RNA expression in one organism, the clone is given a score of zero “0” in that organism. In contrast, a score of “8” means that 10^8 times more cells were required to observe a colony formed on the induced state than in the non-induced state under the conditions used and in that organism.

Salmonella typhimurium = test: Growth inhibition by E. coli antisense nucleic acids in another microorganism, INDUCED vs. UNINDUCED (Example 12, Table V); format: cell-based; details: for Sensitivity of S. typhimurium to antisense nucleic acid (growth inhibition, INDUCED vs. UNINDUCED): antisense RNA expression induced with IPTG, serial dilution plating
Method: as §1, §2
(§3) Expression vectors which inhibited growth of E. coli upon induction of antisense RNA expression with IPTG were transformed directly into Enterobacter cloacae, Klebsiella pneumonia or Salmonella typhimurium. The transformed cells were then assayed for growth inhibition according to the method of Example 1. After growth in liquid culture, cells were plated at various serial dilutions and a score determined by calculating the log difference in growth for INDUCED vs. UNINDUCED antisense RNA expression as determined by the maximum 10 fold dilution at which a colony was observed. If there was no effect of antisense RNA expression in a microorganism, the clone is minus in Table V below. In contrast, a positive in Table V below means that at least 10 fold more cells were required to observe a colony on the induced plate than on the non-induced plate under the conditions used and in that microorganism.

Enterobacter cloacae = test: as above; format: cell-based; details: for Sensitivity of E. cloacae to antisense nucleic acid (growth inhibition, INDUCED vs. UNINDUCED): antisense RNA expression induced with IPTG, serial dilution plating
Method: as §1, §2, §3

Klebsiella pneumoniae = test: as above; format: cell-based; details: for Sensitivity of K. pneumoniae to antisense nucleic acid (growth inhibition, INDUCED vs. UNINDUCED): antisense RNA expression induced with IPTG, serial dilution plating
Method: as §1, §2, §3

Row | Molecule | Sensitivity of S. typhimurium to antisense nucleic acid (growth inhibition, INDUCED vs. UNINDUCED) (Salmonella typhimurium) | Sensitivity of E. cloacae to antisense nucleic acid (growth inhibition, INDUCED vs. UNINDUCED) (Enterobacter cloacae) | Sensitivity of K. pneumoniae to antisense nucleic acid (growth inhibition, INDUCED vs. UNINDUCED) (Klebsiella pneumoniae) | effect of antisense expression on E. coli growth (Escherichia coli) | further results
1 | NC[C@H]1O[C@H](O[C@H]2[C@H](O)[C@@H](O[C@H]3O[C@H](CO)[C@@H](O)[C@H](N)[C@H]3O)[C@H](N)C[C@@H]2N)[C@H](N)C[C@@H]1O [Tobramycin] |  |  |  |  | IC50 [1]: 0.0705 µg/mL (≈ 0.151 µM)
2 | B1 | + (a positive in Table V below means that at least 10 fold more cells were required to observe a colony on the induced plate than on the non-induced plate) | + (a positive in Table V below means that at least 10 fold more cells were required to observe a colony on the induced plate than on the non-induced plate) | + (a positive in Table V below means that at least 10 fold more cells were required to observe a colony on the induced plate than on the non-induced plate) |  | score (log difference in growth for INDUCED vs. UNINDUCED antisense RNA expression) (Escherichia coli; Escherichia coli, maximum 10 fold dilution at which a colony was observed): 8; score (log difference in growth for INDUCED vs. UNINDUCED antisense RNA expression) (Salmonella typhimurium; Salmonella typhimurium, IPTG induction): 8; score (log difference in growth for INDUCED vs. UNINDUCED antisense RNA expression) (Enterobacter cloacae; Enterobacter cloacae, IPTG induction): 8; score (log difference in growth for INDUCED vs. UNINDUCED antisense RNA expression) (Klebsiella pneumoniae; Klebsiella pneumoniae, IPTG induction): > 7
3 | B2 |  | + (a positive in Table V below means that at least 10 fold more cells were required to observe a colony on the induced plate than on the non-induced plate) |  | reduction in cell growth | 
4 | B3 |  |  |  | reduction in cell growth | 
5 | B4 | + (a positive in Table V below means that at least 10 fold more cells were required to observe a colony on the induced plate than on the non-induced plate) | + (a positive in Table V below means that at least 10 fold more cells were required to observe a colony on the induced plate than on the non-induced plate) | + (a positive in Table V below means that at least 10 fold more cells were required to observe a colony on the induced plate than on the non-induced plate) | reduction in cell growth | 
6 | B5 | + (a positive in Table V below means that at least 10 fold more cells were required to observe a colony on the induced plate than on the non-induced plate) |  | + (a positive in Table V below means that at least 10 fold more cells were required to observe a colony on the induced plate than on the non-induced plate) | reduction in cell growth | 
7 | B6 |  |  |  | reduction in cell growth | 
